Positions count from the first letter of the chain named. Names may count otherwise. No end group written: not given here.
T1: Pep-3, NH2-LEEKKGNYVVTDHG-OH (human)
T1 construct: Free peptide used in Biacore and KinExA (MW 1590 Da)
T1 peptide: H-LEEKKGNYVVTDHG-OH

T2: EGFRvIII peptide-OVA (PEP3 14-mer conjugated to ovalbumin) (human, also: conjugated to OVA, chemistry not given here)
T2 construct: also called VIII-pep-OVA; muEGFr
T2 peptide: LEEKKGNYVVTDHC

B1: 13.1.2 variant L217Q-10.1 (antibody, V domains shown)
VH: QVQLVESGGGVVQPGRSLRLSCAASGFTFSSYGMHWVRQAPGKGLEWVAVIWYDGSNKYYVDSVKGRFTISRDNSKNTLYLQMNSLRAEDTAVYYCARDGWQQQAPFDYWGQGTLVTVSS
VL: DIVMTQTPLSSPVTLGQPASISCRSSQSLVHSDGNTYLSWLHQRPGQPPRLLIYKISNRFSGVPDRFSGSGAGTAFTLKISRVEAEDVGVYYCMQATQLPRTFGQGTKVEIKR
notes: also called Leu217Gln; 217Gln
B2: 13.1.2 variant L217N-2.1 (antibody, V domains shown)
VH: B1 VH with Q104N
VL: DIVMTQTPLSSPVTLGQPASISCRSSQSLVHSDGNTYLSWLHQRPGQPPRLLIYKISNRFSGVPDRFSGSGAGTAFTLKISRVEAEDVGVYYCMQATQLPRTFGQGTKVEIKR
notes: also called Leu217Asn; 217Asn
B3: 13.1.2 variant L99H-9.2 (antibody, V domains shown)
VH: B1 VH with Q104L
VL: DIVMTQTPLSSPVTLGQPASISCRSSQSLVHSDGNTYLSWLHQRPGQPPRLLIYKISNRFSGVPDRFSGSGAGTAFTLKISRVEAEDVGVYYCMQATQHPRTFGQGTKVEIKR
notes: also called Leu99His; 99His
B4: 13.1.2 variant Y172R-1.2 (antibody, V domains shown)
VH: B1 VH with Y59R, Q104L
VL: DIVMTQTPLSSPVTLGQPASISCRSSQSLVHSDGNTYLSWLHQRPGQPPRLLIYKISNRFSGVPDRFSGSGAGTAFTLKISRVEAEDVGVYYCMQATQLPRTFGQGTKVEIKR
notes: also called Tyr172Arg; 172Arg
B5: 13.1.2 variant N35G-3.1 (antibody, V domains shown)
VH: B1 VH with Q104L
VL: DIVMTQTPLSSPVTLGQPASISCRSSQSLVHSDGGTYLSWLHQRPGQPPRLLIYKISNRFSGVPDRFSGSGAGTAFTLKISRVEAEDVGVYYCMQATQLPRTFGQGTKVEIKR
notes: also called Asn35Gly; 35Gly
B6: AB-EGFRvIII-XG1-095 (antibody, V domains shown)
VH: QVQLQESGPFLVKPSQTLSLTCTVSGGSISSGGYYWSWIRQHPGKGLEWIGFIYYRGNTYYNPSLKSRVTISVDTSKNQFSLKLSSVTAADTAVYYCARDGYCSRTGCYGGWFDPWGQGTLVTVSP
VL: DIVMTQTPLSSPVTLGQPASISCRSSQSLIHTDGNIYLSWLQQRPGQPPRLLIYKISNRFSGVPDRFSGSGAGTDFTLKISRVEAEDVGVYYCMQGTQFPITFGQGTRLEIK
notes: also called SC95; sc95
B7: 13.1.2 variant Arg101Asp (antibody, V domains shown)
VH: B1 VH with Q104L
VL: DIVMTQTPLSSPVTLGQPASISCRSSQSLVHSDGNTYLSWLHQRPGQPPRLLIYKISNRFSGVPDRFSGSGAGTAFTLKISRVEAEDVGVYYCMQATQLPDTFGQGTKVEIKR
notes: Mutated chain co-transfected with the complementary wild-type chain in 293 cells; supernatant tested
B8: 13.1.2 variant Arg101Gln (antibody, V domains shown)
VH: B1 VH with Q104L
VL: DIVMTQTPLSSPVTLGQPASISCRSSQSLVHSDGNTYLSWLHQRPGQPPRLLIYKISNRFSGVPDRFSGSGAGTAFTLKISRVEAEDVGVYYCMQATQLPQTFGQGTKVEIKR
notes: as for B7
B9: 13.1.2 variant Arg101Glu (antibody, V domains shown)
VH: B1 VH with Q104L
VL: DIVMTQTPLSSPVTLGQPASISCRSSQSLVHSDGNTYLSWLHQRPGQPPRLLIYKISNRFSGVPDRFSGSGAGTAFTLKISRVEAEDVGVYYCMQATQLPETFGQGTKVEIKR
notes: as for B7
B10: SC-EGFRvIII-XG1-250 (antibody, V domains shown)
VH: EGQLLESGGGWVQPGESLRLSCAASGFTFSSYAMSWVRQAPGKGLEWVSAISGSGGSTNYADSVKGRFTISRDNSKNTLYLQVNSLRVEDTAVYYCAGSSGWSEYWGQGTLVTVSS
VL: DIQMTQSPSSLSASVGDSVTITCRTSQGIRKNLGWYQQKPGKAPKRLIYAASSLQSGVPSRFSGSGSGTEFTLTISRLQPEDFATYYCLQHHSYPLTFGGGTRVEIR
notes: also called SC250; sc250
B11: SC-EGFRvIII-XG2-170 (antibody, human IgG1, V domains shown)
VH: QVQLQQSGPGLVKPSQTLSLTCAISGDSVSSNNAAWNWIRQSPARGLEWLGRTYYRSKWYNDYVVSVKSRITINPDTSKNQFSLQLNSVTPEDTAVYYCVRATAFDYWGQGTLVTVSS
VL: AIVLTQTPLSSPVTLGQPASISCRSSQSLVHRDGNTYLSWLQQRPGQPPRLLIYKISNRFSGVPDRFSGSGAGTDFTLKISRVEPDDVGVYYCMHTTQLPWTFGQGTKVEIK
notes: XenoMax-derived from an XMG2 mouse; also called SC170; sc170
B12: SC-EGFRvIII-XG1-211 (antibody, V domains shown)
VH: QVQLVESGGGVVQPGRSLRLSCVASGFTLSSYGMHWVRQAPGKGLEWVAVTSYDGSKKDYADSAKGRFTISRDNSKNTLYLQMNSLRAEDTAVYYCVSEGYCSSSSCYKYYYYGMDVWGQGTTVTVSS
VL: DIVMTQSPLSLPVTPGEPASISCRSSQSLLYRNGNNYLDWYLQRPGQSPQLLIYLGSNRASGVPDRFSGSGSGTDFTLKISRVEAEDVGVYYCMQALQTPRTFGQGTKVEIK
notes: also called SC211; sc211
B13: SC-EGFRvIII-XG2-150 (antibody, human IgG1, V domains shown)
VH: QVQLQQSGPGLVKPSQTLSLTCAISGDSVSSYSSAWNWIRQSPSRGLEWLGRAYHRSRWYYEYAVSVKSRINITPDTSKNQFSLQLNSVTPEDTAVYYCARGSRFDYWGQGTLVTVSS
VL: B11 VL with A1D, L4M, P85A, D86E, V90I, Y92F, L99F, K108R
notes: XenoMax-derived from an XMG2 mouse; also called sc150; 182D5
B14: SC-EGFRvIII-XG1-318 (antibody, human IgG1, V domains shown)
VH: B12 VH with A64V, S103D
VL: B12 VL
notes: XenoMax-derived; also called 141A10
B15: SC-EGFRvIII-XG1-123/124 (antibody, human IgG1, V domains shown)
VH: B12 VH with V23A, T51M, K58E, A64V, K76E, S105R
VL: B12 VL with R44K, K79N, V90H
notes: also called 129A7
B16: SC-EGFRvIII-XG1-333 (antibody, human IgG1, V domains shown)
VH: B12 VH with P41L, A64V, S103D, S105T
VL: B12 VL
notes: XenoMax-derived
B17: SC-EGFRvIII-XG1-342 (antibody, human IgG1, V domains shown)
VH: B12 VH with A64V, S103D, S105T
VL: B12 VL
notes: XenoMax-derived; also called 124D4

Target: T1, Pep-3, NH2-LEEKKGNYVVTDHG-OH
Test: Biacore 2000 SPR, mAb immobilised, pep-3 analyte
Description: The first step in these examples involved the immobilization of 5,600 resonance units (RU) to 8,000 RU of each mAb tested to one flow cell (Fc) of a CM5 sensor chip using standard EDC/NHS coupling chemistry. […] Three CM5 sensor chips were used in total to immobilize all mutant mAbs with a unique mAb immobilized to each flow cell. […] Biacore 2000 optical biosensors were used for all studies.

Binder	Kd [nM]	koff [s⁻¹]	kon [M⁻¹ s⁻¹]
B1	92	0.019	204000
B2	185	0.04	220000
B3	395	0.033	83400
B4	927	0.076	82200
B5	204	0.03	150000

Target: T1, Pep-3, NH2-LEEKKGNYVVTDHG-OH
Test: Biacore 2000 SPR, mAb immobilised, pep-3 analyte, 23 C
Protocol: Standard EDC/NHS and carbohydrate coupling was used to covalently immobilize mAbs to a CM5 sensor chip. To minimize mass transport and crowding mAbs were immobilized at levels that gave a maximum antigen binding response (Rₘₐₓ) of no more than 50-100 RU. A reference flow cell on each chip was activated and blocked with no mAb immobilization to serve as a control.
All Biacore kinetic experiments were conducted at 23° C. […] Antigen samples were randomly injected over the biosensor surface in triplicate at 100 μL/min. Several buffer blanks were injected intermittently over the course of an experiment for double referencing. Each pep-3 concentration and blank were injected for 90 seconds. Dissociation was followed for 13 to 180 minutes.
All Biacore sensorgrams were processed using Scrubber software (Version 1.1f, BioLogic Software, Australia). Sensorgrams were first zeroed on the y-axis and then x-aligned at the beginning of the injection. Bulk refractive index changes were removed by subtracting the reference flow cell responses. The average response of all blank injections was subtracted from all analyte and blank sensorgrams to remove systematic artifacts between the experimental and reference flow cells. CLAMP biosensor data analysis software (Version 3.40, BioLogic Software, Australia) was used to determine kₐ and kd from the processed data sets. Data from all flow cells were globally fit to a 1:1 bimolecular binding model that included a mass transport term. […] The KD was calculated from the quotient kd/kₐ.

Binder	Kd [nM]	koff [s⁻¹]	kon [M⁻¹ s⁻¹]
B6	66	0.0099	149000

target: EGFrVIII antigen (ELISA antigen of Examples 15, 17 and 21; form not stated) (human, UniProt P00533 298-645, limits assumed); test: ELISA, 293 cell supernatant on EGFrVIII antigen
Protocol: Each mutated chain was then transfected with the complementary wild-type chain in 293 cells. Supernatants were then tested for expression and secretion of human IgG antibodies, and for binding to EGFrVIII antigen.

Binder	binding result
B7	no binding
B8	no binding
B9	no binding

target: T3, EGFRvIII, full length, expressed by transfected cells (NR6 M, H1477, 300.19/EGFRvIII) (human, UniProt P00533 298-1210); test: cell-based or functional assay

Binder	% internalization [%]	FACS Geometric mean, With glutathione 4° C. [geometric mean]	FACS Geometric mean, With glutathione 37° C. [geometric mean]
B10	16.7	4.84	8.07
B11	20.1	4.67	7.75
B12	21.6	4.78	8.23
B6	72.4	5.13	17.8
B13	20	4.66	7.78

Target: T2, EGFRvIII peptide-OVA (PEP3 14-mer …)
Test: XenoMax screening

Binder	binding result
B10	binds
B6	binds

target: T3, EGFRvIII, full length, expressed by …; test: FACS on NR6 M cells, antibody at 0.25 µg/ml with SS Alexa anti-human IgG Fab, 37° C. for 1 hr, no glutathione (total cell-associated fluorescence)
Protocol: XenoMax derived IgG1 recombinant antibodies were expressed, purified and quantitated as described previously. Antibodies were further assayed for their ability to internalize the EGFRvIII receptor in NR6 M cells. […] The cells were washed with cold 10% FCS in PBS and secondary antibody (SS Alexa antihuman IgG Fab) at 3 μg/ml Fab was added and incubated for 7 mins on ice. The cells were washed with cold 10% FCS in PBS once and then resuspended in cold media. Next, two sets of the triplicate were incubated at 37° C. and the remaining set was incubated at 4° C. for 1 hr. After that the cells incubated at 4° C. and one set of the cells incubated at 37° C. were treated with glutathione (as previously mentioned) for 1 hr on ice. Then the cells were washed and resuspended in 100 μl of cold 1% FCS in PBS and analyzed by FACS. The % internalization was calculated from the geometric mean obtained from the FACS analysis [(mean at 37° C. with glutathione—mean at 4° C. with glutathione)/(mean at 37° C. without glutathione—mean at 4 C with glutathione)].

Binder	FACS Geometric mean (without glutathione, 37° C.) [geometric mean]
B10	24.1
B11	20
B12	20.8
B6	22.6
B13	20.3

target: T4, EGFRvIII-rabbit Fc fusion protein (human; rabbit, UniProt P00533 298-645); test: ELISA, minilipofection supernatant titrated 1:2 on EGFRvIII-Rab Ig Fc fusion protein (1.5 ug/ml)
T4 construct: made in 293F cells; also called EGFRvIII-RbFc; EGFRvIII-Rab Ig Fc fusion protein; not shown: rabbit IgG Hinge-CH2-CH3 (721 bp fragment)
Protocol: The secretion ELISA tests were performed as follows. […] The plates were washed five times with dH₂O. Recombinant antibodies were titrated 1:2 for 7 wells from the undiluted minilipofection supernatant. The plates were washed five times with dH₂O. A goat anti-human IgG Fc-specific HRP-conjugated antibody was added at a final concentration of 1 μg/mL for 1 hour at RT for the secretion plates and binding plates detected with 1 μg/ml Rb anti Hu Fc for 1 hour at room temperature. The plates were washed five times with dH₂O. The plates were developed with the addition of TMB for 30 minutes and the ELISA was stopped by the addition of 1 M phosphoric acid. Each ELISA plate was analyzed to determine the optical density of each well at 450 nm.

Binder	Titer, antigen binding [reciprocal dilution]
B10	> 64
B11	> 64
B14	64
B15	> 64
B12	> 64
B16	> 64
B17	> 64
B13	> 64
